Assay results: patent publication US20190262327A1, “COMBINATION OF A BACE INHIBITOR AND AN ANTIBODY OR ANTIGEN-BINDING FRAGMENT FOR THE TREATMENT OF A DISORDER ASSOCIATED WITH THE ACCUMULATION OF AMYLOID BETA” (ASTRAZENECA AB, priority 2016, published 2019)
Entries after “also recorded” stand apart in the source; their conditions may differ.

Assays:
[1] = test system: Amyloid beta 1-40 peptide; assay: Total Amyloid beta 1-40 peptide in rat brain homogenates (ELISA); type: in vivo; conditions: Sprague-Dawley rats, 0.25-10 mg/kg weekly over 14 days
Procedure: […] Dosing solutions were made just before dosing. Animals were anaesthetized at the time indicated and cerebrospinal fluid (CSF) was aspirated from the cistema magna. CSF samples were centrifuged for 10 minutes at approximately 3000× g at 4° C. within 20 minutes of sampling to remove cells or debris. Samples were then frozen on dry ice and stored at −70° C. for subsequent analysis.
Animals were sacrificed by decapitation, brain tissue was dissected and Amyloid beta peptides were extracted from brain tissue in diethylamine (DEA; Fluka. Sigma. UK; cat: 31729). Briefly, frozen brain tissue was homogenized in 0.2% DEA and 50 mM NaCl (Merck, USA: cat: 1.06404.1000). Brain homogenates were ultracentrifuged at 133,000×g, for 1 hour. Recovered supernatants were neutralized to pH 8.0 with 2 M Tris-HCl (TRIZMA®-hydrochloride; Sigma, UK; cat: 93363) and stored at −70° C. until analysis. Animal experimentations were performed in accordance with relevant guidelines and regulations provided by the Swedish Board of Agriculture. […]
Measurement of total Amyloid beta 1-40 peptide in rat brain homogenates was performed using the mouse Amyloid beta (1-40) colorimetric ELISA kit (Invitrogen, UK; cat: KMB3481). […] To stop the reaction, 100 μl of Stop Solution was added to each well and the plate was read within 2 hours at an absorbance of 450 nm. […]

[2] = molecular target: T1, Amyloid beta 1-42 peptide (Rattus norvegicus, UniProt P08592); assay: Free Amyloid beta 1-42 peptide in rat CSF (immunoprecipitation + ELISA); type: in vivo; conditions: for reduction of free Amyloid beta 1-42 peptide in CSF vs vehicle control: rats, 168 h after second dose
T1 construct: Measurement of free Amyloid beta 1-42 peptide in rat CSF; from tissue; host or cells: CSF and brain homogenate of Sprague-Dawley rats
T1 sequence (P08592 672-713 limits assumed): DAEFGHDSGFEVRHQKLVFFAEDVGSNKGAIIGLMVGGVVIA
Procedure: Eight-week old male albino Harlan Sprague-Dawley rats (n=8-12) received a single dose of Abet0380-GL IgG1-TM antibody by intravenous injection with a dosing vehicle of 25 mM Histidine, 7% Sucrose, 0.02% p80 surfactant, pH 6.0 at 5 ml/kg. Dosing solutions were made just before dosing. Animals were anaesthetized at the time indicated and cerebrospinal fluid (CSF) was aspirated from the cistema magna. CSF samples were centrifuged for 10 minutes at approximately 3000× g at 4° C. within 20 minutes of sampling to remove cells or debris. Samples were then frozen on dry ice and stored at −70° C. for subsequent analysis.
Measurement of free Amyloid beta 1-42 peptide in rat CSF was conducted using immunoprecipitation to remove Abet0380-GL bound Amyloid beta 1-42 peptide, followed by analysis by a commercial ELISA kit obtained from Invitrogen. Briefly, a solution of protein A beads (Dynabeads® Protein A; Invitrogen, UK; cat: 100-02D) was added to a 96 well non-skirted plate (polypropylene 0.2 ml; VWR International, UK; cat: 10732-4828) and washed twice with TBST (50 mM TBS; Sigma, UK; cat: T6664 plus 0.1% Tween20) using a magnet (DynaMag™ 96 side; Invitrogen, UK; cat: 123.31 D) to separate the beads from the solution. Thawed rat CSF samples (40 μl) were added to each well and incubated at […] with tilt rotation for 1 hour. The beads were then pelleted using the magnet and 30 μl of immunoprecipitated CSF samples were transferred to a 96 well plate from the ELISA kit (mouse Amyloid beta (1-42) colorimetric ELISA kit; Invitrogen, UK; cat: KMB3441) with 70 μl of the Standard Diluent Buffer already added (supplemented with protease inhibitor; Roche, UK; cat: 11836153001). Calibration standard samples were added to the plate in duplicate and the plate was incubated for 2 hours at room temperature with shaking. The plate was washed 4 times with 400 µl of wash buffer, 100 μl of the detection antibody solution was added to each well and the plate was incubated for 1 hour at room temperature with shaking. Again, the plate was washed 4 times with 400 μl of wash buffer, 100 μl of the secondary antibody working solution was added to each well and the plate was incubated for 30 minutes at room temperature with shaking. Finally, the plate was washed 4 times with 400 μl of wash buffer, 100 μl of stabilized Chromogen was added to each well and the plate was incubated for 30 minutes at room temperature in the dark. To stop the reaction, 100 μl of Stop Solution was added to each well and the plate was read within 2 hours at an absorbance of 450 nm. Single CSF samples were analyzed and data analysis was performed using Prism 4 (GraphPad, USA) with one-way ANOVA on log transformed data without adjustment for multiple comparisons.
To further investigate the effect of the Abet0380-GL IgG1-TM antibody in vivo, rats were administered weekly doses of 0.25, 0.5, 1, 5 or 10 mg/kg over 14 days. Animals were euthanized 168 hours after the second dose to measure levels of free Amyloid beta 1-42 peptide in CSF as well as total Amyloid beta 1-42 or 1-40 peptides in brain tissue.
The ability of antibody Abet0144-GL to sequester amyloid beta 1-42 was investigated in a PK-PD study in normal rats. Rats were intravenously administered Abet0144-GL (10 or 40 mg/kg) or vehicle weekly for 2 weeks (on days 0 and 7), and sacrificed a week after the 2nd dose. […] Free and total amyloid beta 1-42 levels were measured using assays described above.

B1: Abet0380-GL IgG1-TM: germlined Abet0380; VH SEQ ID NO: 524, VL SEQ ID NO: 533; human IgG1 triple mutant format (antibody, listed as Homo sapiens, V domains shown)
VH: EVQLLESGGGLVQPGGSLRLSCAASMGNFNYQTMWWVRQAPGKGLEWVSVIGKTNENIAYADSVKGRFTISRDNSKNTLYLQMNSLRAEDTAVYYCAREWMDHSRPYYYYGMDVWGQGTLVTVSS
VL: SYELTQPPSVSVSPGQTASITCSGHNLEDKFASWYQQKPGQSPVLVIYRDDKRPSGIPERFSASNSGHTATLTISGTQAMDEADYYCSSQDTVTRVFGGGTKLTVL
modifications: human IgG1 triple mutant constant region; /note=“Abet0380-GL”
notes: germlined Abet0380; human IgG1 triple mutant format
effect on total Amyloid beta 1-40 peptide in brain tissue [1]: unaffected | effect on free Amyloid beta 1-42 in CSF ([2]; Sprague-Dawley rats, 0.25-10 mg/kg weekly over 14 days): dose-dependent decrease; also recorded: dose-dependent reduction | reduction of free Amyloid beta 1-42 peptide in CSF vs vehicle control ([2]; 0.25 mg/kg weekly over 14 days, not statistically significant): 14% | reduction of free Amyloid beta 1-42 peptide in CSF vs vehicle control ([2]; 0.5 mg/kg weekly over 14 days): 47% | reduction of free Amyloid beta 1-42 peptide in CSF vs vehicle control ([2]; 1 mg/kg weekly over 14 days): 61%
